Biological target: human CD3, on primary human T cells (human) (UniProt P07766)
Experiment: cell-based or functional assay

Sequence of human CD3, on primary human T cells (human) (P07766 23-207 limits assumed): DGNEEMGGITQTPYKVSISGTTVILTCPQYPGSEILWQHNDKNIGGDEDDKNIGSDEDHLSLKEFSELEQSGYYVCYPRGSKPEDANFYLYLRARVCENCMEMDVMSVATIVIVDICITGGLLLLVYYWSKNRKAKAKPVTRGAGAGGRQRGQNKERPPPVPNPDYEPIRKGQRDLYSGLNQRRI

PGT-121.60 (antibody)
3%: PD-1 Δ Emax; CD4 T cells; donor D2256; uninfected CEM cells
-1%: Ki-67 Δ Emax; CD4 T cells; donor D1597; THRO-infected CEM cells | Ki-67 Δ Emax; CD4 T cells; donor D4279; 7552-infected CEM cells | PD-1 Δ Emax; CD4 T cells; donor D4279; uninfected CEM cells | PD-1 Δ Emax; CD8 T cells; donor D2256; THRO-infected CEM cells | PD-1 Δ Emax; CD8 T cells; donor D4246; uninfected CEM cells
0%: Ki-67 Δ Emax; CD4 T cells; donor D2256; 7552-infected CEM cells | Ki-67 Δ Emax; CD4 T cells; donor D2256; uninfected CEM cells | Ki-67 Δ Emax; CD4 T cells; donor D4246; 7552-infected CEM cells | Ki-67 Δ Emax; CD4 T cells; donor D4246; THRO-infected CEM cells | Ki-67 Δ Emax; CD4 T cells; donor D4246; uninfected CEM cells | Ki-67 Δ Emax; CD8 T cells; donor D1597; 7552-infected CEM cells | Ki-67 Δ Emax; CD8 T cells; donor D1597; THRO-infected CEM cells | Ki-67 Δ Emax; CD8 T cells; donor D1597; uninfected CEM cells | Ki-67 Δ Emax; CD8 T cells; donor D2256; 7552-infected CEM cells | Ki-67 Δ Emax; CD8 T cells; donor D2256; THRO-infected CEM cells | Ki-67 Δ Emax; CD8 T cells; donor D2256; uninfected CEM cells | Ki-67 Δ Emax; CD8 T cells; donor D4246; 7552-infected CEM cells | Ki-67 Δ Emax; CD8 T cells; donor D4246; THRO-infected CEM cells | Ki-67 Δ Emax; CD8 T cells; donor D4246; uninfected CEM cells | Ki-67 Δ Emax; CD8 T cells; donor D4279; 7552-infected CEM cells | Ki-67 Δ Emax; CD8 T cells; donor D4279; THRO-infected CEM cells | Ki-67 Δ Emax; CD8 T cells; donor D4279; uninfected CEM cells | PD-1 Δ Emax; CD4 T cells; donor D1597; 7552-infected CEM cells | PD-1 Δ Emax; CD4 T cells; donor D1597; uninfected CEM cells | PD-1 Δ Emax; CD4 T cells; donor D4246; THRO-infected CEM cells | PD-1 Δ Emax; CD4 T cells; donor D4246; uninfected CEM cells | PD-1 Δ Emax; CD8 T cells; donor D1597; 7552-infected CEM cells | PD-1 Δ Emax; CD8 T cells; donor D1597; THRO-infected CEM cells | PD-1 Δ Emax; CD8 T cells; donor D1597; uninfected CEM cells | PD-1 Δ Emax; CD8 T cells; donor D2256; 7552-infected CEM cells | PD-1 Δ Emax; CD8 T cells; donor D2256; uninfected CEM cells | PD-1 Δ Emax; CD8 T cells; donor D4246; 7552-infected CEM cells | PD-1 Δ Emax; CD8 T cells; donor D4246; THRO-infected CEM cells | PD-1 Δ Emax; CD8 T cells; donor D4279; 7552-infected CEM cells | PD-1 Δ Emax; CD8 T cells; donor D4279; THRO-infected CEM cells | PD-1 Δ Emax; CD8 T cells; donor D4279; uninfected CEM cells
-2%: Ki-67 Δ Emax; CD4 T cells; donor D2256; THRO-infected CEM cells | PD-1 Δ Emax; CD4 T cells; donor D2256; 7552-infected CEM cells | PD-1 Δ Emax; CD4 T cells; donor D4279; THRO-infected CEM cells
> 100 µg/mL: Ki-67 EC50; CD4 T cells; donor D1597; 7552-infected CEM cells | Ki-67 EC50; CD4 T cells; donor D1597; THRO-infected CEM cells | Ki-67 EC50; CD4 T cells; donor D1597; uninfected CEM cells | Ki-67 EC50; CD4 T cells; donor D2256; 7552-infected CEM cells | Ki-67 EC50; CD4 T cells; donor D2256; THRO-infected CEM cells | Ki-67 EC50; CD4 T cells; donor D2256; uninfected CEM cells | Ki-67 EC50; CD4 T cells; donor D4246; 7552-infected CEM cells | Ki-67 EC50; CD4 T cells; donor D4246; THRO-infected CEM cells | Ki-67 EC50; CD4 T cells; donor D4246; uninfected CEM cells | Ki-67 EC50; CD4 T cells; donor D4279; 7552-infected CEM cells | Ki-67 EC50; CD4 T cells; donor D4279; THRO-infected CEM cells | Ki-67 EC50; CD4 T cells; donor D4279; uninfected CEM cells | Ki-67 EC50; CD8 T cells; donor D1597; 7552-infected CEM cells | Ki-67 EC50; CD8 T cells; donor D1597; THRO-infected CEM cells | Ki-67 EC50; CD8 T cells; donor D1597; uninfected CEM cells | Ki-67 EC50; CD8 T cells; donor D2256; 7552-infected CEM cells | Ki-67 EC50; CD8 T cells; donor D2256; THRO-infected CEM cells | Ki-67 EC50; CD8 T cells; donor D2256; uninfected CEM cells | Ki-67 EC50; CD8 T cells; donor D4246; 7552-infected CEM cells | Ki-67 EC50; CD8 T cells; donor D4246; THRO-infected CEM cells | Ki-67 EC50; CD8 T cells; donor D4246; uninfected CEM cells | Ki-67 EC50; CD8 T cells; donor D4279; 7552-infected CEM cells | Ki-67 EC50; CD8 T cells; donor D4279; THRO-infected CEM cells | Ki-67 EC50; CD8 T cells; donor D4279; uninfected CEM cells | PD-1 EC50; CD4 T cells; donor D1597; 7552-infected CEM cells | PD-1 EC50; CD4 T cells; donor D1597; THRO-infected CEM cells | PD-1 EC50; CD4 T cells; donor D1597; uninfected CEM cells | PD-1 EC50; CD4 T cells; donor D2256; 7552-infected CEM cells | PD-1 EC50; CD4 T cells; donor D2256; THRO-infected CEM cells | PD-1 EC50; CD4 T cells; donor D2256; uninfected CEM cells | PD-1 EC50; CD4 T cells; donor D4246; 7552-infected CEM cells | PD-1 EC50; CD4 T cells; donor D4246; THRO-infected CEM cells | PD-1 EC50; CD4 T cells; donor D4246; uninfected CEM cells | PD-1 EC50; CD4 T cells; donor D4279; 7552-infected CEM cells | PD-1 EC50; CD4 T cells; donor D4279; THRO-infected CEM cells | PD-1 EC50; CD4 T cells; donor D4279; uninfected CEM cells | PD-1 EC50; CD8 T cells; donor D1597; 7552-infected CEM cells | PD-1 EC50; CD8 T cells; donor D1597; THRO-infected CEM cells | PD-1 EC50; CD8 T cells; donor D1597; uninfected CEM cells | PD-1 EC50; CD8 T cells; donor D2256; 7552-infected CEM cells | PD-1 EC50; CD8 T cells; donor D2256; THRO-infected CEM cells | PD-1 EC50; CD8 T cells; donor D2256; uninfected CEM cells | PD-1 EC50; CD8 T cells; donor D4246; 7552-infected CEM cells | PD-1 EC50; CD8 T cells; donor D4246; THRO-infected CEM cells | PD-1 EC50; CD8 T cells; donor D4246; uninfected CEM cells | PD-1 EC50; CD8 T cells; donor D4279; 7552-infected CEM cells | PD-1 EC50; CD8 T cells; donor D4279; THRO-infected CEM cells | PD-1 EC50; CD8 T cells; donor D4279; uninfected CEM cells
1%: Ki-67 Δ Emax; CD4 T cells; donor D1597; 7552-infected CEM cells | Ki-67 Δ Emax; CD4 T cells; donor D1597; uninfected CEM cells | Ki-67 Δ Emax; CD4 T cells; donor D4279; THRO-infected CEM cells | Ki-67 Δ Emax; CD4 T cells; donor D4279; uninfected CEM cells | PD-1 Δ Emax; CD4 T cells; donor D1597; THRO-infected CEM cells | PD-1 Δ Emax; CD4 T cells; donor D2256; THRO-infected CEM cells | PD-1 Δ Emax; CD4 T cells; donor D4279; 7552-infected CEM cells
2%: PD-1 Δ Emax; CD4 T cells; donor D4246; 7552-infected CEM cells
